In US20090089894A1 (IOWA STATE UNIVERSITY RESEARCH FOUNDATION, published 2009):

Biological target: T1, pB42AD-T, SV40 large T-antigen (87-708 aa) in the pB42AD vector (SV40, UniProt P03070 87-708)
T1 construct: range 87-708; positive control prey
Assay: yeast two-hybrid positive control (FIG. 2)

T1 sequence (P03070 87-708 limits assumed): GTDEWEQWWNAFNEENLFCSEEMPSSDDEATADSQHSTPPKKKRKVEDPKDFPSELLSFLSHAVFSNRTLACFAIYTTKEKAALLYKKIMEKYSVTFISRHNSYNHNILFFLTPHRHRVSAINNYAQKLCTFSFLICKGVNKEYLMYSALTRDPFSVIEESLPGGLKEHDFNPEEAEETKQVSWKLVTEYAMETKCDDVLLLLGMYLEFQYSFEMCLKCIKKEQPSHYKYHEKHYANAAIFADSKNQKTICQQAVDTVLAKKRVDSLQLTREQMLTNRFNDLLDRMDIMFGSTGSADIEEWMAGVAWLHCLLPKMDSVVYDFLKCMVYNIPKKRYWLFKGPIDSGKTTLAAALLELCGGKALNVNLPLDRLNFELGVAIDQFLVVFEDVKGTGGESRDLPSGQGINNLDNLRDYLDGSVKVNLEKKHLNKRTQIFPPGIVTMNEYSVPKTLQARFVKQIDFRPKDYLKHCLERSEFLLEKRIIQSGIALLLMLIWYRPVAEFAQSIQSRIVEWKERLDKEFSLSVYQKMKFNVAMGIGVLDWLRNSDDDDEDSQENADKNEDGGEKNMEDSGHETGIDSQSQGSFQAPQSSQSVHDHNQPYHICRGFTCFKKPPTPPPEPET

B1: pLexA-53, murine p53 (72-390 aa) in the pLexA vector (other)
chain: PVTETPGPVAPAPATPWPLSSFVPSQKTYQGNYGFHLGFLQSGTAKSVMCTYSPPLNKLFCQLAKTCPVQLWVSATPPAGSRVRAMAIYKKSQHMTEVVRRCPHHERCSDGDGLAPPQHLIRVEGNLYPEYLEDRQTFRHSVVVPYEPPEAGSEYTTIHYKYMCNSSCMGGMNRRPILTIITLEDSSGNLLGRDSFEVRVCACPGRDRRTEEENFRKKEVLCPELPPGSAKRALPTCTSASPPQKKKPLDGEYFTLKIRGRKRFEMFRELNEALELKDAHATEESGDSRAHSSYLKTKKGQSTSRHKKTMVKKVGPDSD
notes: range 72-390; positive control bait
binding result: binds
